Here are results for twelve molecules from US11155586B2, “Cystine knot scaffold platform” (Genentech, Inc., priority 2015, dated 2021).

Positions of bridges follow the written chain, without caps; N, C: chain ends. Residues, ends and D or L forms follow the SMILES beside them.

The target of test [1] is T1, hVEGF-A (8-109) (Homo sapiens, UniProt P15692).
T1 sequence (P15692 214-315): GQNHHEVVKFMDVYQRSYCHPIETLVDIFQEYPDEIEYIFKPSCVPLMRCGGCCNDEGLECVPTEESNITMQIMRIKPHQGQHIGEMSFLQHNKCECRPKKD
Description: Phage competition ELISA. It counts as binding. To be noted: phage competition ELISA, FIG. 15. (In an ELISA, binding on a coated surface is turned into a signal by an enzyme label.)

In test [2] the test system is mouse or rat VEGF-A. The note with it: cited from earlier work.
Test [3] addresses T2, LRP6 E1E2 (Homo sapiens, UniProt O75581).
T2 sequence (O75581 20-630 limits assumed): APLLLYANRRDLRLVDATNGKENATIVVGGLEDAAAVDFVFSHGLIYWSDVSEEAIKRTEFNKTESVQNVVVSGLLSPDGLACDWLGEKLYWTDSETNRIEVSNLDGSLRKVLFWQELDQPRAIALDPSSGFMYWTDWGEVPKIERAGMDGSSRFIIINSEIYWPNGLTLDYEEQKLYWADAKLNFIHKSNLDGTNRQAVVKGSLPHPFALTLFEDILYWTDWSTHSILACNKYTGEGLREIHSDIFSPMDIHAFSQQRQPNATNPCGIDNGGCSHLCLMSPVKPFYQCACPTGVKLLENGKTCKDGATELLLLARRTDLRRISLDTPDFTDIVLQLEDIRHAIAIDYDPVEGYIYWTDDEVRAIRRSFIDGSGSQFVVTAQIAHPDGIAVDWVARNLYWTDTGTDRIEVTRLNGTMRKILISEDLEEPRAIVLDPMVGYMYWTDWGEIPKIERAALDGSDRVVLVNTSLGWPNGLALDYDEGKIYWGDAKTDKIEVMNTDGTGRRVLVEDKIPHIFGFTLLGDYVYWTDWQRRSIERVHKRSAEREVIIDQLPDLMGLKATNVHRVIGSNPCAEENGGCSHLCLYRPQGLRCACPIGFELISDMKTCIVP
Briefly: Phage selection / spot phage ELISA against LRP6 E1E2. It is filed as binding. On the procedure:
After four rounds of binding selection, individual phage clones were picked and inoculated into 450 μl 2YT media containing 50 µg/ml Carbenecillin and M13-KO7 helper phage in 96-well blocks, which were grown at 37° C. overnight. The supernatant was analyzed with spot phage ELISA as follows: hVEGF(8-109) or BSA were coated on 384-well MAXISORP™ immunoplates and phage supernatant diluted (1:3) with PBT buffer was added to the wells. The plates were washed and bound phage was detected with anti-M13-HRP followed by TMB substrate. In these assays, phage binding to BSA alone was tested in parallel to assess background binding. Clones whose binding signals for hVEGF-A (8-109) were more than 3 times higher than to BSA (background) were considered positive. Positive clones were subjected to DNA sequence analysis.
The naïve EETI-II libraries described in Example 2A were cycled through rounds of selection against LRP6 E1E2 protein. Twenty-two unique clones were identified which bound LRP6 E1E2 (Table 46). These initial hits contained variations in amino acid content within loops 1 and 5. […] The newly evolved variants recapitulated a motif which occurs in natural ligands.

The target of test [4] is T3, hVEGF-A (Homo sapiens, UniProt P15692).
T3 sequence (P15692 207-395): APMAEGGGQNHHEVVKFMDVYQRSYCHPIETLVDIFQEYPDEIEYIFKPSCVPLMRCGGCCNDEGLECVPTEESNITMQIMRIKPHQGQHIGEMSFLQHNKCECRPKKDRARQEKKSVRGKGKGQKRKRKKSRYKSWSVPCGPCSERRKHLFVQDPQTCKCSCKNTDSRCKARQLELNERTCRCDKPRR
Description: KDR-CHO VEGF assay to determine cellular IC50 (VEGF mediated Tyr phosphorylation of KDR). It is filed as cell-based. The procedure: KDR-CHO cells (CHO cells stably transfected with gD tagged-KDR) were grown in cell growth medium (DMEM/Ham's F-12, 10% diafiltered FBS (GIBCO catalog no. 26400), 25 mM HEPES, 2 mM L-GLUTAMAX™). For VEGF stimulation assay, 5×10^4 cells/well were plated in 100 μl of cell plating medium (DMEM/Ham's F-12, 0.2% BSA, 0.25% diafiltered FBS, 25 mM HEPES, 2 mM L-GLUTAMAX™) in 96-well tissue culture plate and incubated at 37° C. overnight. The medium was replaced with 100 I1 of serum-free cell stimulation medium (DMEM/Ham's F-12, 0.5% BSA, 25 mM HEPES) and cells were incubated at 37° C. for 2 hr. One hour before stimulation, the medium was replaced with 50 I1 of serum-free cell stimulation medium. Concurrently, VEGF (50 ng/ml for hVEGF, 100 ng/ml for mVEGF and rVEGF) was pre-incubated with titrated amount of CKP or anti-VEGF in 50 μl of serum-free cell stimulation medium at 37° C. for 1 hour and added to the cells. The cells were stimulated for 15 min at 37 C and the medium is removed. The cells were lysed with 130 I1 of ice-cold cell lysis buffer (150 mM NaCl, 50 mM HEPES, 0.5% Triton-X 100, HALT protease and phosphatase inhibitor cocktail (ThermoFisher Scientific, Inc. catalog no. 78444), 5 mM EDTA). VEGF mediated Tyr phosphorylation of KDR was determined by ELISA-based assay. Briefly, MAXISORP™ 96 well plates (ThermoFisher Scientific, Inc. catalog no. 439454) were coated with 100 I1 of anti-gD antibody diluted in PBS (1 μg/ml) at 4° C. overnight and washed three times with washing buffer (PBS, 0.05% TWEEN®20, pH 7.4). The plates were blocked with 300 I1 of blocking buffer (PBS, 0.5% BSA) at room temperature for 1 hour followed by washing three times with washing buffer. The above KDR-CHO cell lysate (100 μl) was added to each well and incubated at room temperature for 2 hours. The plates were washed four times with washing buffer followed by incubation with 100 I1 of 0.5 μg/ml biotin-conjugated anti-phosphotyrosine (clone 4G10, Millipore catalog no. 16-103) in blocking buffer at room temperature for 2 hours. After washing four times, the plates were incubated with 100 I1 of HRP-conjugated streptavidin in blocking buffer at room temperature for 30 min. After washing four times, the plates were developed with 100 I1 of TMB substrate (BD Biosciences) at room temperature for 20-30 min and stopped by addition of 50 μl of H2SO4 solution. The optical density of each well was determined using a microplate reader set to 450 nm.

As for “GCNIMLPFWGCGQSFECLAGCICQYYQSCGVH [9.54.1-90]”, the “improvement of binding affinity for hVEGF-A (8-109) compared to parent clone” value (“improvement … compared to parent clone” below) in test [1] was “approximately 10 fold”.
Still for that read-out and setting: under “9.54-28: C-terminal two-residue extension variant based on 9.54 (Table 39) (GCNIMLPFWGCKQDFDCLAGCICQYYQSCGFH)” stands “approximately 10 fold”.
Same read-out and setting: under “GCNIMLPFWGCGQSFECLAGCICQYYQSCGIA [9.54.1-2]” stands “approximately 10 fold”.
As for bevacizumab, the “binding to mouse or rat VEGF-A” value in test [2] is listed as “do not bind”.
As for “LRP6_CKP6 (GCRNSIKRCKQNSDCLAGCVCSVGHGCG)”, the “S/N (signal to noise ratio as compared to BSA control)” value in test [3] (LRP6 E1E2 vs BSA control) was 37.36. The same molecule came in with an ELISA in test [3] (binding signal against LRP6 E1E2) of 3.10.
For “GCNIMLPFWGCGQSFECLAGCICQYYQSCGLS [9.54.1-42]”, the “improvement … compared to parent clone” value in test [1] is “approximately 10 fold”.
In the case of “GCNIMLPFWGCGQSFECLAGCICQYYQSCGGS [9.54.1-63]”, the “improvement … compared to parent clone” value in test [1] is “approximately 10 fold”.
Regarding “GCNIMLPFWGCGQSFECLAGCICQYYQSCGTR [9.54.1-36]”, the “improvement … compared to parent clone” value in test [1] is recorded as “approximately 10 fold”.
ranibizumab: the “binding to mouse or rat VEGF-A” value in test [2] is on record as “do not bind”.
For `CC[C@H](C)[C@H](NC(=O)[C@@H]1CSSC[C@H](NC(=O)CN)C(=O)N[C@@H](CC(N)=O)C(=O)N[C@@H]([C@@H](C)CC)C(=O)N[C@@H](CCSC)C(=O)N[C@@H](CC(C)C)C(=O)N2CCC[C@H]2C(=O)N[C@@H](Cc2ccccc2)C(=O)N[C@@H](Cc2c[nH]c3ccccc23)C(=O)NCC(=O)N[C@H]2CSSC[C@H](NC(=O)[C@H](CCC(=O)O)NC(=O)[C@H](Cc3ccccc3)NC(=O)[C@H](CC(=O)O)NC(=O)[C@H](CCCNC(=N)N)NC(=O)CNC2=O)C(=O)N[C@@H](CCSC)C(=O)N[C@@H](CCC(N)=O)C(=O)N[C@@H]([C@@H](C)O)C(=O)N1)C(=O)N[C@H]1CSSC[C@@H](C(=O)NCC(=O)O)NC(=O)[C@H](CO)NC(=O)[C@H](CCC(N)=O)NC(=O)[C@H](Cc2ccc(O)cc2)NC(=O)[C@H](Cc2ccc(O)cc2)NC(=O)[C@H](CCC(N)=O)NC1=O` [9.54.90.25] (H-GCNIMLPFWGCGRDFECMQTCICQYYQSCG-OH; disulfide 2-21, 11-17, 23-29; N-terminus and C-terminus assumed), the “FOLD IMPROVEMENT RELATIVE TO VARIANT 9.54.90” value in test [4] (Table 36, from cellular IC50) stood at 1.07.
`CCCC[C@@H]1NC(=O)[C@H]([C@@H](C)CC)NC(=O)[C@H](CC(N)=O)NC(=O)[C@@H](NC(=O)CN)CSSC[C@@H](C(=O)N[C@H](C(=O)N[C@H]2CSSC[C@@H](C(=O)NCC(=O)O)NC(=O)[C@H](CO)NC(=O)[C@H](CCC(N)=O)NC(=O)[C@H](Cc3ccc(O)cc3)NC(=O)[C@H](Cc3ccc(O)cc3)NC(=O)[C@H](CCC(N)=O)NC2=O)C(C)C)NC(=O)CNC(=O)[C@H](C)NC(=O)[C@H](CC(C)C)NC(=O)[C@@H]2CSSC[C@H](NC(=O)CNC(=O)[C@H](Cc3c[nH]c4ccccc34)NC(=O)[C@H](Cc3ccccc3)NC(=O)[C@@H]3CCCN3C(=O)[C@H](CC(C)C)NC1=O)C(=O)NCC(=O)N[C@@H](CCCNC(=N)N)C(=O)N[C@@H](CC(=O)O)C(=O)N[C@@H](Cc1ccccc1)C(=O)N[C@@H](CCC(=O)O)C(=O)N2` [9.54.90.M5.Nle]: the “FOLD IMPROVEMENT RELATIVE TO VARIANT 9.54.90” value in test [4] (Table 38, from cellular IC50) was found to be 0.69.
Same read-out and setting: under `CC[C@H](C)[C@@H]1NC(=O)[C@H](CC(N)=O)NC(=O)[C@@H](NC(=O)CN)CSSC[C@@H](C(=O)N[C@H](C(=O)N[C@H]2CSSC[C@@H](C(=O)NCC(=O)O)NC(=O)[C@H](CO)NC(=O)[C@H](CCC(N)=O)NC(=O)[C@H](Cc3ccc(O)cc3)NC(=O)[C@H](Cc3ccc(O)cc3)NC(=O)[C@H](CCC(N)=O)NC2=O)C(C)C)NC(=O)CNC(=O)[C@H](C)NC(=O)[C@H](CC(C)C)NC(=O)[C@@H]2CSSC[C@H](NC(=O)CNC(=O)[C@H](Cc3c[nH]c4ccccc34)NC(=O)[C@H](Cc3ccc(O)cc3)NC(=O)[C@@H]3CCCN3C(=O)[C@H](CC(C)C)NC(=O)[C@H](CCSC)NC1=O)C(=O)NCC(=O)N[C@@H](CCCNC(=N)N)C(=O)N[C@@H](CC(=O)O)C(=O)N[C@@H](Cc1ccccc1)C(=O)N[C@@H](CCC(=O)O)C(=O)N2` [9.54.90.F8Y] (H-GCNIMLPYWGCGRDFECLAGCVCQYYQSCG-OH; disulfide 2-21, 11-17, 23-29; N-terminus and C-terminus assumed) stands 0.85.
